Substrate: N=C(N)N
Assay: HPLC guanidine / GC-MS urea quantification, velocity versus guanidine concentration
Assay type: biochemical, Synechocystis sp. PCC 6803
Conditions: 20 mM Tris-HCl pH 7.5, 50 mM NaCl, 1 mM MnCl2, 30 °C, His-tagged enzyme, no ATP

B1: Sll1077-His (Synechocystis sp. PCC 6803 substr. Kazusa) (protein)
chain: MSDATPFRPPSEAEEALIKETRLPLTGWQQEVDQGLTYGLEAAASIKDRSIPTFSRGELPHYAGINTFMKAPYLEDVREVGKYDVAIVGVPHDSGTTYRPGTRFGPQGIRRISALYTPYNFEMGVDLREQISLCDVGDIFTIPANNEKSFDQISKGIAHIFSSGAFPIILGGDHSIGFPTVRGICRHLGDKKVGIIHFDRHVDTQETDLDERMHTCPWFHATNMANAPAKNLVQLGIGGWQVPRQGVKVCRERATNILTVTDITEMSLDAAADFAIARATDGTDCVWISFDIDCIDAGFVPGTGWPEPGGLLPREALYLLKRIIRETNVCGMEVVEVSPPYDISDMTSLMATRVICDTMAHLVVSGQLPRTEKPAYIHAEANMAVDEPWQ
notes: full-length with C-terminal 6xHis tag kept (no XhoI linker, pPB316), overexpressed in and purified from Synechocystis 6803 strain PB816W
Question: What does the source list for B1?
Answer: Km: 5.3 ± 1.2 mM; kcat: 0.040 ± 0.010 s⁻¹

Source: article PMC8390497, “A guanidine-degrading enzyme controls genomic stability of ethylene-producing cyanobacteria” (Nature Communications, 2021)
